Tests used:
[1] = biological target: T1, human tissue factor (TF), membrane-bound on cells (human, UniProt P13726 33-295); assay: cell-based or functional assay
[2] = biological target: T1, human tissue factor (TF), …; assay: FACS, Bx-PC3 cells, 30 µg/mL
Summary of the method: (§1)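 First, cells suspended at 2×10⁶ cells/ml were exposed to serially diluted antibody for 30 minutes on ice. After three washes, PE-conjugated goat anti-human IgGFc (1:100) was applied for 30 minutes on ice in the dark, then binding was measured by flow cytometry.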

[3] = biological target: T1, human tissue factor (TF), …; assay: FACS, MDA-MB-231 cells, 30 µg/mL
Summary of the method: as §1

[4] = biological target: T1, human tissue factor (TF), …; assay: FACS, A431 cells
Summary of the method: as §1

[5] = biological target: T1, human tissue factor (TF), …; assay: cell-based or functional assay; remark: listed apart in the source
[6] = biological target: T1, human tissue factor (TF), …; assay: FACS, MDA-MB-231 cells
Summary of the method: as §1

[7] = biological target: T1, human tissue factor (TF), …; assay: FACS, TF transfected CHO cells (S1015-TF), 7.5 µg/mL
Summary of the method: as §1

[8] = biological target: T1, human tissue factor (TF), …; assay: cell-based or functional assay; remark: listed apart in the source
TF (Innovin) [9] = biological target: T2, TF (Innovin) (UniProt P13726 33-295, limits assumed); assay: cell-based or functional assay
[10] = biological target: T1, human tissue factor (TF), …; assay: FACS on MDA-MB-231 cells (~900.000 TF molecules/cell) [panel MDA-MB-231 cells]
[11] = biological target: T1, human tissue factor (TF), …; assay: FACS, TF transfected CHO cells (S1015-TF)
Summary of the method: as §1

[12] = biological target: T1, human tissue factor (TF), …; assay: FACS, Bx-PC3 cells
Summary of the method: as §1

[13] = biological target: T3, TFECDHis (extracellular domain of tissue factor, amino acid 1-251, with C-terminal His tag) (human, UniProt P13726 33-251); assay: SPR BIAcore 3000, HuMab immobilized, TFECDHis analyte
T3 construct: range 1-251; The stated range 1-251 starts at residue 1 of NP-001984; also called extracellular domain of TF
Summary of the method: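 HuMab antibodies (500 RU) amine-coupled on a CM-5 chip; TFECDHis concentration series in HBS-EP run over them at 30 μl/min for 180 sec. Surface regenerated with glycine pH 2.0 or acetate pH 3.0; kinetics from double-referenced 1:1 Langmuir fitting.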

TF (Innovin) [14] = biological target: T2, TF (Innovin); assay: cell-based or functional assay; remark: listed apart in the source
[15] = biological target: T3, TFECDHis (extracellular domain of …); assay: ELISA, coated TFECDHis, mean of 3
Summary of the method: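 Plates coated overnight at +4° C with 0.5 μg/mL TFECDHis in PBS pH 7.4, blocked with 2% chicken serum. Serially diluted HuMabs bound 1 h at RT with shaking, detected with HRP anti-human IgG. Binding curves fitted by sigmoidal dose-response with variable slope; anti-KLH HuMab served as negative control.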

B1: anti-TF HuMab 013 (antibody, V domains shown)
VH: EVQLVQSGAEVKKPGESLKISCKGSGYSFTSYWIGWVRQMPGKGLEWMGIIYPGDSDTRYSPSFQGQVTISADKSISTAYLQWSSLKASDTAMYYCARIHRGAGYSSSWPGAFDIWGQGTMVTVSS
VL: DIQMTQSPSSLSASVGDRVTITCRASQGISRWLAWYQQKPEKAPKSLIYAASSLQSGVPSRFSGSGSGTDFTLTISSLQPEDFATYYCQQYDSDPITFGQGTRLEIK
notes: Human monoclonal antibody from HuMab mice; also called HuMab-TF-13
max inhibition of FVIIa induced IL-8 release (MDA-MB-231) [1]: -0.3% | Max MFI [2]: 1300 | Max MFI [3]: 2450 | EC50 [4]: 8.04 nM | EC50 of ADCC, Bx-PC3 cells [5]: 0.07 nM | EC50 of ADCC, MDA-MB-231 cells [5]: 0.06 nM | EC50 [6]: 1.58 nM | Max MFI [7]: 5210 | % max inhibition of FVIIa induced ERK phosphorylation (A431) [8]: 26% | IC50, inhibition of FVIIa induced ERK phosphorylation (A431) [8]: 9.11 nM | IC50, inhibition of blood coagulation (TF induced clotting time) (TF (Innovin) [9]): 0.6 nM | EC50 (read off the curve) [10]: ~0.1 µg/mL | EC50 [11]: 1.07 nM | EC50 [12]: 1.86 nM | Kd [13]: 2.78 nM | % max inhibition of FXa generation (TF (Innovin) [14]): 31% | IC50, inhibition of FXa generation (TF (Innovin) [14]): 0.05 nM | EC50 [15]: 0.24 nM

B2: anti-TF HuMab 109 (antibody, V domains shown)
VH: QVQLVESGGGVVQPGRSLRLSCPASGFTFSIYAMHWVRQAPGKGLEWVAVVSNDGYNKYYADSVKGRFTISRDNSKDTLYLQMNSLRAEDTAVYYCARDGQLGRGYFDYWGQGTLVTVSS
VL: EIVLTQSPATLSLSPGERAILSCRASQSVSSYLAWYQQKPGQAPRLLIYDASNRATGIPARFSGSGSGTDFTLTISSLEPEDFAVYYCQQRSNWPLTFGGGTKVEIK
notes: Human monoclonal antibody from HuMab mice
IC50, inhibition of FVIIa induced IL-8 release (MDA-MB-231) [1]: 13.6 nM | max inhibition of FVIIa induced IL-8 release (MDA-MB-231) [1]: 70.4% | Max MFI [2]: 1320 | Max MFI [3]: 2050 | EC50 [4]: 1.74 nM | EC50 of ADCC, Bx-PC3 cells [5]: 0.06 nM | EC50 of ADCC, MDA-MB-231 cells [5]: 0.12 nM | EC50 [6]: 2.16 nM | Max MFI [7]: 5630 | % max inhibition of FVIIa induced ERK phosphorylation (A431) [8]: 72% | IC50, inhibition of FVIIa induced ERK phosphorylation (A431) [8]: 2.42 nM | IC50, inhibition of blood coagulation (TF induced clotting time) (TF (Innovin) [9]): 7.6 nM | EC50 (read off the curve) [10]: ~0.07 µg/mL | EC50 [11]: 0.92 nM | EC50 [12]: 4.04 nM | Kd [13]: 4.75 nM | % max inhibition of FXa generation (TF (Innovin) [14]): 18% | IC50, inhibition of FXa generation (TF (Innovin) [14]): 0.09 nM | EC50 [15]: 0.27 nM

— patent publication US20110300156A1 (Genmab, published 2011)
